Experimental data: the supplement of paper PMC10567573

B1: TPD52L1 (parent)
chain: ISKKFGDMSYSIRHSISMPAMRNS
B2: TRIM63 (parent)
chain: ANPYWTSRGSSVSMSGGRFRCPTC

Variants of: B1
Experiment: protein stability index of a GFP-peptide fusion (GPS, HEK-293T) (PSI 1-6); higher = more stable
Settings: c terminus: a fixed tail appended
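Further: lentivirally expressed fusions sorted by FACS into six bins by GFP to DsRed ratio, PSI derived from sequencing read proportions per bin multiplied by bin number.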

Going from ISKKFGDMSYSIRHSISMPAMRWS [N23W] to ISKKFGDMSYSIRHSISMPAMRYS [N23Y], the protein stability index falls from 2.39 to 1.51.

Going from ISKKFGDMSYSIRHSISMPAMRNA [S24A] to ISKKFGDMSYSIRHSISMPAMRNC [S24C], the protein stability index falls from 2.63 to 1.92.

First: ISKKFGDMSYSIRHSISMPAMRND [S24D]
Second: ISKKFGDMSYSIRHSISMPAMRNE [S24E]
The protein stability index of the first is higher: 2.61 for the first, 2.15 for the second.

First: ISKKFGDMSYSIRHSISMPAMRNF [S24F]
Second: ISKKFGDMSYSIRHSISMPAMRNG [S24G]
The protein stability index of the first is lower: 1.57 for the first, 2.13 for the second.

Compared with ISKKFGDMSYSIRHSISMPAMRNH [S24H], ISKKFGDMSYSIRHSISMPAMRNI [S24I] is lower in protein stability index: 2.42 for the first, 1.81 for the second.

First: ISKKFGDMSYSIRHSISMPAMRNK [S24K]
Second: ISKKFGDMSYSIRHSISMPAMRNL [S24L]
The protein stability index of the first is higher: 2.21 for the first, 1.96 for the second.

Going from ISKKFGDMSYSIRHSISMPAMRNM [S24M] to ISKKFGDMSYSIRHSISMPAMRNN [S24N], the protein stability index rises from 1.82 to 2.33.

Compared with ISKKFGDMSYSIRHSISMPAMRNP [S24P], ISKKFGDMSYSIRHSISMPAMRNQ [S24Q] is lower in protein stability index: 2.33 for the first, 1.76 for the second.

Going from ISKKFGDMSYSIRHSISMPAMRNR [S24R] to ISKKFGDMSYSIRHSISMPAMRNT [S24T], the protein stability index rises from 2.67 to 2.74.

Going from ISKKFGDMSYSIRHSISMPAMRNV [S24V] to ISKKFGDMSYSIRHSISMPAMRNW [S24W], the protein stability index falls from 2.24 to 1.44.

Variant ISKKFGDMSYSIRHSISMPAMRNY [S24Y] has a protein stability index of 1.77.

Variants of: B2
Experiment: as above
Settings: c terminus: a fixed tail appended

First: DNPYWTSRGSSVSMSGGRFRCPTC [A1D]
Second: ENPYWTSRGSSVSMSGGRFRCPTC [A1E]
The protein stability index of the first is lower: 1.67 for the first, 2.31 for the second.

Compared with FNPYWTSRGSSVSMSGGRFRCPTC [A1F], GNPYWTSRGSSVSMSGGRFRCPTC [A1G] is lower in protein stability index: 2.58 for the first, 1.66 for the second.

Compared with HNPYWTSRGSSVSMSGGRFRCPTC [A1H], INPYWTSRGSSVSMSGGRFRCPTC [A1I] is lower in protein stability index: 1.88 for the first, 1.53 for the second.

First: KNPYWTSRGSSVSMSGGRFRCPTC [A1K]
Second: LNPYWTSRGSSVSMSGGRFRCPTC [A1L]
The protein stability index of the first is higher: 2.1 for the first, 1.89 for the second.

First: MNPYWTSRGSSVSMSGGRFRCPTC [A1M]
Second: NNPYWTSRGSSVSMSGGRFRCPTC [A1N]
The protein stability index of the first is lower: 2.07 for the first, 2.18 for the second.

Going from PNPYWTSRGSSVSMSGGRFRCPTC [A1P] to QNPYWTSRGSSVSMSGGRFRCPTC [A1Q], the protein stability index rises from 1.28 to 1.49.

First: RNPYWTSRGSSVSMSGGRFRCPTC [A1R]
Second: SNPYWTSRGSSVSMSGGRFRCPTC [A1S]
The protein stability index of the first is lower: 2.08 for the first, 2.69 for the second.

Going from TNPYWTSRGSSVSMSGGRFRCPTC [A1T] to VNPYWTSRGSSVSMSGGRFRCPTC [A1V], the protein stability index rises from 1.88 to 2.21.

Compared with AAPYWTSRGSSVSMSGGRFRCPTC [N2A], ACPYWTSRGSSVSMSGGRFRCPTC [N2C] is higher in protein stability index: 2.08 for the first, 2.43 for the second.

Going from AEPYWTSRGSSVSMSGGRFRCPTC [N2E] to AFPYWTSRGSSVSMSGGRFRCPTC [N2F], the protein stability index falls from 2.51 to 1.6.

First: AGPYWTSRGSSVSMSGGRFRCPTC [N2G]
Second: AHPYWTSRGSSVSMSGGRFRCPTC [N2H]
The protein stability index of the first is lower: 1.84 for the first, 2.3 for the second.

First: AIPYWTSRGSSVSMSGGRFRCPTC [N2I]
Second: AKPYWTSRGSSVSMSGGRFRCPTC [N2K]
The protein stability index of the first is higher: 3.56 for the first, 1.59 for the second.

Compared with ALPYWTSRGSSVSMSGGRFRCPTC [N2L], AMPYWTSRGSSVSMSGGRFRCPTC [N2M] is higher in protein stability index: 1.37 for the first, 1.6 for the second.

Going from APPYWTSRGSSVSMSGGRFRCPTC [N2P] to AQPYWTSRGSSVSMSGGRFRCPTC [N2Q], the protein stability index falls from 1.76 to 1.23.

First: ARPYWTSRGSSVSMSGGRFRCPTC [N2R]
Second: ASPYWTSRGSSVSMSGGRFRCPTC [N2S]
The protein stability index of the first is higher: 2.05 for the first, 1.89 for the second.

Compared with ATPYWTSRGSSVSMSGGRFRCPTC [N2T], AYPYWTSRGSSVSMSGGRFRCPTC [N2Y] is higher in protein stability index: 1.73 for the first, 2.14 for the second.

Compared with ANAYWTSRGSSVSMSGGRFRCPTC [P3A], ANEYWTSRGSSVSMSGGRFRCPTC [P3E] is lower in protein stability index: 2.08 for the first, 1.91 for the second.

First: ANFYWTSRGSSVSMSGGRFRCPTC [P3F]
Second: ANGYWTSRGSSVSMSGGRFRCPTC [P3G]
The protein stability index of the first is higher: 2.13 for the first, 1.18 for the second.

Compared with ANHYWTSRGSSVSMSGGRFRCPTC [P3H], ANIYWTSRGSSVSMSGGRFRCPTC [P3I] is lower in protein stability index: 2.82 for the first, 2.14 for the second.

Going from ANMYWTSRGSSVSMSGGRFRCPTC [P3M] to ANNYWTSRGSSVSMSGGRFRCPTC [P3N], the protein stability index falls from 1.54 to 1.07.

Going from ANQYWTSRGSSVSMSGGRFRCPTC [P3Q] to ANRYWTSRGSSVSMSGGRFRCPTC [P3R], the protein stability index falls from 2.2 to 1.84.

First: ANSYWTSRGSSVSMSGGRFRCPTC [P3S]
Second: ANTYWTSRGSSVSMSGGRFRCPTC [P3T]
The protein stability index of the first is lower: 1.36 for the first, 2.08 for the second.

Going from ANYYWTSRGSSVSMSGGRFRCPTC [P3Y] to ANPAWTSRGSSVSMSGGRFRCPTC [Y4A], the protein stability index falls from 2.38 to 1.33.

First: ANPCWTSRGSSVSMSGGRFRCPTC [Y4C]
Second: ANPDWTSRGSSVSMSGGRFRCPTC [Y4D]
The protein stability index of the first is higher: 2.92 for the first, 2.51 for the second.

Going from ANPEWTSRGSSVSMSGGRFRCPTC [Y4E] to ANPFWTSRGSSVSMSGGRFRCPTC [Y4F], the protein stability index falls from 2.1 to 1.57.

Going from ANPGWTSRGSSVSMSGGRFRCPTC [Y4G] to ANPIWTSRGSSVSMSGGRFRCPTC [Y4I], the protein stability index rises from 1.36 to 2.8.

First: ANPKWTSRGSSVSMSGGRFRCPTC [Y4K]
Second: ANPMWTSRGSSVSMSGGRFRCPTC [Y4M]
The protein stability index of the first is higher: 2.09 for the first, 1.75 for the second.

First: ANPNWTSRGSSVSMSGGRFRCPTC [Y4N]
Second: ANPQWTSRGSSVSMSGGRFRCPTC [Y4Q]
The protein stability index of the first is higher: 2.34 for the first, 1.69 for the second.

First: ANPRWTSRGSSVSMSGGRFRCPTC [Y4R]
Second: ANPSWTSRGSSVSMSGGRFRCPTC [Y4S]
The protein stability index of the first is lower: 1.47 for the first, 1.65 for the second.

Compared with ANPTWTSRGSSVSMSGGRFRCPTC [Y4T], ANPVWTSRGSSVSMSGGRFRCPTC [Y4V] is lower in protein stability index: 2.17 for the first, 1.56 for the second.

Compared with ANPWWTSRGSSVSMSGGRFRCPTC [Y4W], ANPYATSRGSSVSMSGGRFRCPTC [W5A] is lower in protein stability index: 2.18 for the first, 1.92 for the second.

First: ANPYCTSRGSSVSMSGGRFRCPTC [W5C]
Second: ANPYDTSRGSSVSMSGGRFRCPTC [W5D]
The protein stability index of the first is lower: 1.6 for the first, 2.19 for the second.

First: ANPYETSRGSSVSMSGGRFRCPTC [W5E]
Second: ANPYFTSRGSSVSMSGGRFRCPTC [W5F]
The protein stability index of the first is higher: 2.25 for the first, 1.41 for the second.

Going from ANPYGTSRGSSVSMSGGRFRCPTC [W5G] to ANPYHTSRGSSVSMSGGRFRCPTC [W5H], the protein stability index falls from 2.45 to 2.17.

Going from ANPYLTSRGSSVSMSGGRFRCPTC [W5L] to ANPYMTSRGSSVSMSGGRFRCPTC [W5M], the protein stability index rises from 1.73 to 2.16.

ANPYNTSRGSSVSMSGGRFRCPTC [W5N] and ANPYPTSRGSSVSMSGGRFRCPTC [W5P] are the same in protein stability index: 2.44 for the first, 2.44 for the second.

For ANPYQTSRGSSVSMSGGRFRCPTC [W5Q], the protein stability index was 2.62.
